Data taken from the DeepSol protein solubility set.

Assay: soluble on expression in E. coli; label from the status in PepcDB or PDB records

Sequence	soluble on expression in E. coli
MNMYRVIEMYGDFEPWWFLEGWEEDIVASRKFDQYYDALKYYKTCWFRLEQESPLYKSRSDLMTIFWDPEDQRWCDECDEYLQQYHSLALLQDEQVIPDEKLRSGYEKQTSQERNRSCRMKLKLEHHHHHH	soluble
MGSDKIHHHHHHMSSSTTPDLLYPSADKVAEPSDNIHGDELRLRERIKDNPTNILSYFQLIQYLETQESYAKVREVYEQFHNTFPFYSPAWTLQLKGELARDEFETVEKILAQCLSGKLENNDLSLWSTYLDYIRRKNNLITGGQEARAVIVKAFQLVMQKCAIFEPKSSSFWNEYLNFLEQWKPFNKWEEQQRIDMLREFYKKMLCVPFDNLEKMWNRYTQWEQEINSLTARKFIGELSAEYMKARSLYQEWLNVTNGLKRASPINLRTANKKNIPQPGTSDSNIQQLQIWLNWIKWERENKLMLSEDMLSQRISYVYKQGIQYMIFSAEMWYDYSMYISENSDRQNILYTALLANPDSPSLTFKLSECYELDNDSESVSNCFDKCTQTLLSQYKKIASDVNSGEDNNTEYEQELLYKQREKLTFVFCVYMNTMKRISGLSAARTVFGKCRKLKRILTHDVYVENAYLEFQNQNDYKTAFKVLELGLKYFQNDGVYINKYLDFLIFLNKDSQIKTLFETSVEKVQDLTQLKEIYKKMISYESKFGNLNNVYSLEKRFFERFPQENLIEVFTSRYQIQNSNLIKKLELTYMYNEEEDSYFSSGNGDGHHGSYNMSSSDRKRLMEETGNNGNFSNKKFKRDSELPTEVLDLLSVIPKRQYFNTNLLDAQKLVNFLNDQVEIPTVESTKSG	not soluble
MGSSHHHHHHSSGLVPRGSVGGCLAKDGLQQSKCPDTTPKRRRASSLSRDAERRAYQWCREYLGGAWRRVQPEELRVYPVSGGLSNLLFRCSLPDHLPSVGEEPREVLLRLYGAILQGVDSLVLESVMFAILAERSLGPQLYGVFPEGRLEQYIPSRPLKTQELREPVLSAAIATKMAQFHGMEMPFTKEPHWLFGTMERYLKQIQDLPPTGLPEMNLLEMYSLKDEMGNLRKLLESTPSPVVFCHNDIQEGNILLLSEPENADSLMLVDFEYSSYNYRGFDIGNHFCEWVYDYTHEEWPFYKARPTDYPTQEQQLHFIRHYLAEAKKGETLSQEEQRKLEEDLLVEVSRYALASHFFWGLWSILQASMSTIEFGYLDYAQSRFQFYFQQKGQLTSVHSSS	soluble
MNPDLRKERASATFNPELITHILDGSPENTRRRREIENLILNDPDFQHEDYNFLTRSQRYEVAVKKSATMVKKMREYGISDPEEIMWFKNSVHRGHPEPLDLHLGMFLPTLLHQATAEQQERFFMPAWNLEITGTYAQTEMGHGTHLRGLETTATYDPKTQEFILNSPTVTSIKWWPGGLGKTSNHAIVLAQLITQGECYGLHAFVVPIREIGTHKPLPGITVGDIGPKFGYEEMDNGYLKMDNYRIPRENMLMKYAQVKPDGTYVKPLSNKLTYGTMVFVRSFLVGNAAQSLSKACTIAIRYSAVRRQSEIKQSEPEPQILDFQTQQYKLFPLLATAYAFHFVGRYMKETYLRINESIGQGDLSELPELHALTAGLKAFTTWTANAGIEECRMACGGHGYSHSSGIPNIYVTFTPACTFEGENTVMMLQTARFLMKIYDQVRSGKLVGGMVSYLNDLPSQRIQPQQVAVWPTMVDINSLEGLTEAYKLRAARLVEIAAKNLQTHVSHRKSKEVAWNLTSVDLVRASEAHCHYVVVKVFSDKLPKIQDKAVQAVLRNLCLLYSLYGISQKGGDFLEGSIITGAQLSQVNARILELLTLIRPNAVALVDAFDFKDMTLGSVLGRYDGNVYENLFEWAKKSPLNKTEVHESYHKHLKPLQSKL	soluble
MDPTQHRKAARPCDARRVLVLQGGGALGAYQAGAYQALCHHDFEPQWLAGISIGAINAAIIAGNPREQRVEKLKQFWEMASSPVPWQPLLRDDHVHSLFNETSAAMIATFGVPGFFTPRFPPTHLLPSGKPSNLSYYDTAPLRSTLERLVDFDRLNHNGIRLSVGAVNIATGNFVYFDTTKQIIGPEHIMASAALPPGFPAIEIDGEHYWDGGVASNTPLDYVL	not soluble
MRCIMTEDAQKLAIMEQDVKIVRALSKIKHKIVVMSGKGGVGKSTVTVKLAEEFSRNGYSVCVLDADVHGPDIPKMMRVREPEITLTGNLINPIPTPVGATVMSIEFFLPSEDTPVIWRGPKKTGAIRQLLADVNWEGIDVLIVDNPPGTGDEPLTVLQSIPGIDGVVIVTTPQEVSIHDVEKCINMVNHLKIPVLGIIENMSYLQCPECGKKVFLFGKDGGKYLADKFDLQFLGEIPFETGISGDNESSASSYINNEMVKIFNKLAKYLKDGGANLEHHHHHH	soluble
MGSDKIHHHHHHMDKILNLDSVDLYNKLYGLETLNPLVSVIDLNKATSSVDLIRFNYGIYALYLKLEKACDIKYGRQTYDYQEGTIVCFAPGQTAETNPTTDKVQVNAHGILFHPDLLRGTSLGKNIKKYTFFSYEVNEALHLSEEERSIVMDCLKIIRMELEHGVDKHSKTLLVNHIELLLNYCMRFYERQFITRGKTNRDVLTRFENLLDEYFESTLAEQDGLPTVKYFADKLCLSSNYFGDMFKKETGKSPQEYIQEKVIELAKERISGTADTVSQIAYSLGFQYPQHSCRLFKKRVGYTPSEYRAQIGLSTNL	not soluble
MINDDILAHARQCAPAESCGYVVRTAQGERYFPCENLSAEPTMYFRISPEDYLNARNRGDIVALVHSHPDGKPCLSSADRTLQIQSGLDWWLVCDNRIHKFRCVPHLTGRQFEHGVTDCYTLFRDAYHLAGIDMPDFDREDDWWSQGKSLYLDHLEAAGFYRVNPEDAQPGDVLICCFGSPTPNHAAIYCGNGELLHHIPEQLSKREGYNDKWQRRTHSIWRHRQWCESAFTGIYNDLESASASA	not soluble
MSAQYDLYETPDIKQTGEKQPLHPRIVPKGTIGQDEFLDRVHKFTGISRSLLAGAMQSFQNELKDLLANGWIVELGEIGYFSVSLQGPPVMHKKDVRAQSIKLKNINYLPTKQFKREVGYDMRLERTESLTRPKGNGRSEAECLALITAHLEKYPCMTRTDYCHMTGHDKKRALKELNAFIEKEILMRYGAGKQVVYAKKMI	not soluble
MDRFNEYRIMWVLVLFDLPTETKKEKKAYADFRKNLQKDGFTMFQFSIYVRHCGSSENAAVHIKRVKSFLPEFGHVGIMCITDKQFGDIELFYGKKVQDVNTPGQQLELFLEHHHHHH	not soluble
MGSDKIHHHHHHMTGSNKVIISCAVTGSIHTPTMTPYLPITSTEIANAATGAIDAGAAIVHLHARHPDDGRPDQTVGAFRPFIEHIKAHTDGIINLTTGGAPTMSVEERLQPALHLKPEIASLNMGSMNFGLFPMLNRYKEFKHEWERHYLEGTRDLVFRNTFKDIEYVLSSCTGNDTRFEFECYDTAHLYNLAHFLDRKLVTPPLFVQTVFGILGGIGSHADDVAHMKRTADRLFGSNYVWSVLGAGRAQMPVASIAAAQGGNVRVGIEDSIWNGPGQLAKANSDQVRRVRQILEGMGLAIATPDEARTLLHLKGRNNVAF	not soluble
MGSDKIHHHHHHMYRAVIFDFDGTIIDTEQHLFNVINKHLEMHNADPISIDFYRSSIGGAATDLHDHLIKAIGSENKDKLYEEHHLTSTTLPMIDTIKSLMAFLKQRHIPMAIATSSVKAEIMPTFKALGLDDYIEVVVGREDVEQVKPDPELYLSAVQQLNYMPTQCLAIEDSVNGATAAIAAGLDVIVNTNKMTSAQDFSNVDYVAKDIDYDQIVARFFTK	not soluble
MADEPLHYGEDYHFIHATSAASGLGVSVLPDLYCHTIQIVNICLVGRPDDHAFVLVDAGMPGSADDIVSVVEDRFGSGSRPQAIVLTHGHFDHVGAIVELVKHWNVPVYAHPAELPYLTGKASYPEPDASVEGGFIAKISPFFPNEPIQLGNRVQPLPADGTVPHLPEFRWIHTPGHTPGHISLFRPRDAALIAGDAFVTVRQDSLYKVLTQQIEISGPPRYYTIDWRAARESVRKLAALFPSVAITGHGAPVAGKELREGLTKLARDFDRIATPDYGKYVH	soluble
GLNHMTARYLREEHHMFRAAFRKFLEKEAYPHYNDWEKRGIIPRSFWAKMGENGFLCPWVDEKYGGLNADFAYSVVINEELEKVGSSLVGIGLHNDIVTPYIASYGTEEQKQKWLPKCVTGELITAIAMTEPGAGSDLANISTTAVKDGDYYIVNGQKTFITNGIHADLIVVACKTDPQAKPPHRGISLLVVERDTPGFTRGRKLEKVGLHAQDTAELFFQDAKVPAYNLLGEEGKGFYYLMEKLQQERLVVAIAAQTAAEVMFSLTKQYVKQRTAFGKRVSEFQTVQFRLAEMATEIALGRTFVDRVIEEHMAGKQIVTEVSMAKWWITEMAKRVAAEAMQLHGGYGYMEEYEIARRYRDIPVSAIYAGTNEMMKTIIARQLDL	soluble
MQAEGEKSDKISKISTGIPRVDELLYGGFDGRDNIVVSGNNFSQKRSFIYNFIKSSANSGMKVIIINVDGSSESLLADLARRGTDLENIILLDGFSKNFQEKVPPNAEVIDDPSNVSSVLKQYMLRAQKEKDFIFVFLSATPYLMDFNDQNRKFFVQLVHWNRKNSLLSTYVLDDFVGQTTAEWFAYMMDFSLYFKNDGDYDYMRVLSLKPVRTKDWIRIYKDSDVFTLGSFNVERIR	not soluble
GAGTLIKDNLKRDLITSLPFEISLKIFNYLQFEDIINSLGVSQNWNKIIRKSTSLWKKLLISENFVSPKGFNSLNLKLSQKYPKLSQQDRLRLSFLENIFILKNWYNPKFVPQRTTLRGHMTSVITCLQFEDNYVITGADDKMIRVYDSINKKFLLQLSGHDGGVWALKYAHGGILVSGSTDRTVRVWDIKKGCCTHVFEGHNSTVRCLDIVEYKNIKYIVTGSRDNTLHVWKLPKESSVPDHGEEHDYPLVFHTPEENPYFVGVLRGHMASVRTVSGHGNIVVSGSYDNTLIVWDVAQMKCLYILSGHTDRIYSTIYDHERKRCISASMDTTIRIWDLENGELMYTLQGHTALVGLLRLSDKFLVSAAADGSIRGWDANDYSRKFSYHHTNLSAITTFYVSDNILVSGSENQFNIYNLRSGKLVHANILKDADQIWSVNFKGKTLVAAVEKDGQSFLEILDFS	soluble
DNYFRIHVKKLPEENKDAQGLWTWDDVEKPSENWPNGALSFKDAKKDDYGYYLDVKLKGEQAKKISFLINNTAGKNLTGDKSVEKLVPKMNEAWLDQDYKVFSYEPQPAGTVRVNYYRTDGNYDKKSLWYWGDVKNPSSAQWPDGTDFTATGKYGRYIDIPLNEAAREFGFLLLDESKGDVKIRKENYKFTDLKNHSQIFLKDDDESIYTNPYYVHD	soluble
MSLDIQSLDIQCEELSDARWAELLPLLQQCQVVRLDDCGLTEARCKDISSALRVNPALAELNLRSNELGDVGVHCVLQGLQTPSCKIQKLSLQNCCLTGAGCGVLSSTLRTLPTLQELHLSDNLLGDAGLQLLCEGLLDPQCRLEKLQLEYCSLSAASCEPLASVLRAKPDFKELTVSNNDINEAGVRVLCQGLKDSPCQLEALKLESCGVTSDNCRDLCGIVASKASLRELALGSNKLGDVGMAELCPGLLHPSSRLRTLWIWECGITAKGCGDLCRVLRAKESLKELSLAGNELGDEGARLLCETLLEPGCQLESLWVKSCSFTAACCSHFSSVLAQNRFLLELQISNNRLEDAGVRELCQGLGQPGSVLRVLWLADCDVSDSSCSSLAATLLANHSLRELDLSNNCLGDAGILQLVESVRQPGCLLEQLVLYDIYWSEEMEDRLQALEKDKPSLRVIS	soluble
MRHAKSAYPDGIADHDRPLAPRGIREAGLAGGWLRANLPAVDAVLCSTATRARQTLAHTGIDAPARYAERLYGAAPGTVIEEINRVGDNVTTLLVVGHEPTTSALAIVLASISGTDAAVAERISEKFPTSGIAVLRVAGHWADVEPGCAALVGFHVPR	soluble
